# B1: CLINT1 (parent)
# chain: VVTSAREHIYDLRSLENYHFVDEH
# B2: PPEF2 (parent)
# chain: AFKAAALIQRWYRRYVARLEMRRR
# Variants of: B1
# Test: protein stability index of a GFP-peptide fusion (GPS, HEK-293T) (PSI 1-6); higher = more stable
# Details: c terminus: a fixed tail appended
# 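Note: lentivirally expressed fusions sorted by FACS into six bins by GFP to DsRed ratio, PSI derived from sequencing read proportions per bin multiplied by bin number.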
row,Variant,protein stability index
1,VHTSAREHIYDLRSLENYHFVDEH [V2H],3.44
2,VMTSAREHIYDLRSLENYHFVDEH [V2M],3.2
3,VLTSAREHIYDLRSLENYHFVDEH [V2L],3.23
4,VATSAREHIYDLRSLENYHFVDEH [V2A],3.34
5,VYTSAREHIYDLRSLENYHFVDEH [V2Y],2.67
6,VCTSAREHIYDLRSLENYHFVDEH [V2C],2.9
7,VPTSAREHIYDLRSLENYHFVDEH [V2P],4.19
8,VSTSAREHIYDLRSLENYHFVDEH [V2S],3.12
9,VQTSAREHIYDLRSLENYHFVDEH [V2Q],3.53
10,VTTSAREHIYDLRSLENYHFVDEH [V2T],3.24
11,VRTSAREHIYDLRSLENYHFVDEH [V2R],3.13
12,VETSAREHIYDLRSLENYHFVDEH [V2E],3.67
13,VKTSAREHIYDLRSLENYHFVDEH [V2K],3.01
14,VFTSAREHIYDLRSLENYHFVDEH [V2F],2.56
15,VNTSAREHIYDLRSLENYHFVDEH [V2N],3.62
16,VGTSAREHIYDLRSLENYHFVDEH [V2G],3.34
17,VDTSAREHIYDLRSLENYHFVDEH [V2D],4.26
18,VWTSAREHIYDLRSLENYHFVDEH [V2W],2.38
19,VITSAREHIYDLRSLENYHFVDEH [V2I],2.3
20,VVTSCREHIYDLRSLENYHFVDEH [A5C],2.08
21,VVTSDREHIYDLRSLENYHFVDEH [A5D],3.53
22,VVTSEREHIYDLRSLENYHFVDEH [A5E],3.81
23,VVTYAREHIYDLRSLENYHFVDEH [S4Y],1.48
24,VVTEAREHIYDLRSLENYHFVDEH [S4E],3.04
25,VVTDAREHIYDLRSLENYHFVDEH [S4D],3.82
26,VVTQAREHIYDLRSLENYHFVDEH [S4Q],2.91
27,VVTVAREHIYDLRSLENYHFVDEH [S4V],2.47

row,Variant,protein stability index
1,VVTGAREHIYDLRSLENYHFVDEH [S4G],2.73
2,VVTTAREHIYDLRSLENYHFVDEH [S4T],3.18
3,VVTWAREHIYDLRSLENYHFVDEH [S4W],2.48
4,VVTMAREHIYDLRSLENYHFVDEH [S4M],2.24
5,VVTAAREHIYDLRSLENYHFVDEH [S4A],2.41
6,VVTIAREHIYDLRSLENYHFVDEH [S4I],2.1
7,VVTHAREHIYDLRSLENYHFVDEH [S4H],2.82
8,VVTCAREHIYDLRSLENYHFVDEH [S4C],1.64
9,VVTKAREHIYDLRSLENYHFVDEH [S4K],2.52
10,VVTFAREHIYDLRSLENYHFVDEH [S4F],2.03
11,VVTPAREHIYDLRSLENYHFVDEH [S4P],3.4
12,VVTRAREHIYDLRSLENYHFVDEH [S4R],2.65
13,VVTLAREHIYDLRSLENYHFVDEH [S4L],1.95
14,VVTNAREHIYDLRSLENYHFVDEH [S4N],2.84
15,VVHSAREHIYDLRSLENYHFVDEH [T3H],2.48
16,VVPSAREHIYDLRSLENYHFVDEH [T3P],2.99
17,VVNSAREHIYDLRSLENYHFVDEH [T3N],2.8
18,VVMSAREHIYDLRSLENYHFVDEH [T3M],2.1
19,VVWSAREHIYDLRSLENYHFVDEH [T3W],2.31
20,VVFSAREHIYDLRSLENYHFVDEH [T3F],1.98
21,VVRSAREHIYDLRSLENYHFVDEH [T3R],3.09
22,VVCSAREHIYDLRSLENYHFVDEH [T3C],2.29
23,VVVSAREHIYDLRSLENYHFVDEH [T3V],2.07
24,VVSSAREHIYDLRSLENYHFVDEH [T3S],2.89
25,VVGSAREHIYDLRSLENYHFVDEH [T3G],3.78
26,VVESAREHIYDLRSLENYHFVDEH [T3E],3.84
27,VVKSAREHIYDLRSLENYHFVDEH [T3K],3.11

row,Variant,protein stability index
1,VVISAREHIYDLRSLENYHFVDEH [T3I],2.04
2,VVYSAREHIYDLRSLENYHFVDEH [T3Y],2.24
3,VVLSAREHIYDLRSLENYHFVDEH [T3L],2.32
4,VVASAREHIYDLRSLENYHFVDEH [T3A],2.62
5,VVQSAREHIYDLRSLENYHFVDEH [T3Q],3.25
6,VVDSAREHIYDLRSLENYHFVDEH [T3D],3.52
7,CVTSAREHIYDLRSLENYHFVDEH [V1C],2.54
8,TVTSAREHIYDLRSLENYHFVDEH [V1T],3.63
9,IVTSAREHIYDLRSLENYHFVDEH [V1I],2.67
10,YVTSAREHIYDLRSLENYHFVDEH [V1Y],1.5
11,HVTSAREHIYDLRSLENYHFVDEH [V1H],3.35
12,PVTSAREHIYDLRSLENYHFVDEH [V1P],3.5
13,GVTSAREHIYDLRSLENYHFVDEH [V1G],3.67
14,EVTSAREHIYDLRSLENYHFVDEH [V1E],3.96
15,SVTSAREHIYDLRSLENYHFVDEH [V1S],3.68
16,RVTSAREHIYDLRSLENYHFVDEH [V1R],2.92
17,NVTSAREHIYDLRSLENYHFVDEH [V1N],3.8
18,AVTSAREHIYDLRSLENYHFVDEH [V1A],3.89
19,QVTSAREHIYDLRSLENYHFVDEH [V1Q],3.5
20,LVTSAREHIYDLRSLENYHFVDEH [V1L],2.62
21,DVTSAREHIYDLRSLENYHFVDEH [V1D],4.06
22,KVTSAREHIYDLRSLENYHFVDEH [V1K],3.45
23,FVTSAREHIYDLRSLENYHFVDEH [V1F],1.79
24,WVTSAREHIYDLRSLENYHFVDEH [V1W],2.47
25,MVTSAREHIYDLRSLENYHFVDEH [V1M],2.88

# Variants of: B2
# Test: as above
# Details: c terminus: a fixed tail appended
row,Variant,protein stability index
1,AFKAAALIQRWYRRYVARLEMRRG [R24G],3.09
2,AFKAAALIQRWYRRYVARLEMRRA [R24A],3.72
3,AFKAAALIQRWYRRYVARLEMRRV [R24V],2.34
4,AFKAAALIQRWYRRYVARLEMRRS [R24S],2.63
5,AFKAAALIQRWYRRYVARLEMRRC [R24C],1.97
6,AFKAAALIQRWYRRYVARLEMRRN [R24N],3.62
7,AFKAAALIQRWYRRYVARLEMRRT [R24T],2.48
8,AFKAAALIQRWYRRYVARLEMRRE [R24E],3
9,AFKAAALIQRWYRRYVARLEMRRY [R24Y],2.87
10,AFKAAALIQRWYRRYVARLEMRRQ [R24Q],3.32
11,AFKAAALIQRWYRRYVARLEMRRP [R24P],2.39
12,AFKAAALIQRWYRRYVARLEMRRH [R24H],3.78
13,AFKAAALIQRWYRRYVARLEMRRL [R24L],2.9
14,AFKAAALIQRWYRRYVARLEMRRK [R24K],2.75
15,AFKAAALIQRWYRRYVARLEMRRW [R24W],1.99

# From the supplement of paper PMC10567573
